According to US20210093714A1, “Combination and method for inhibiting the cancer cells” (NATIONAL TAIWAN UNIVERSITY, priority 2013, published 2021):

Key:
EGFR [1] = molecular target: T1, EGFR (Homo sapiens, UniProt P00533); test: FACS of membranous association between CCN2 and EGFR; format: cell-based; conditions: CL1-5 and A549; rCCN2 100 ng/mL; FIG. 2B
T1 construct: endogenous in cells; host or cells: CL1-5 and A549 human lung adenocarcinoma cell lines
Protocol: (§1) After washing, cells were stained with an FITC-labelled goat anti-rabbit secondary antibody (Santa Cruz Biotechnology) for 30 min in the dark. Analysis was then conducted with an FACS Calibur cytometer (Collaborative Biomedical, BD Biosciences).
In this embodiment, the concentration thereof is about 100 ng/mL.

EGFR [2] = test: Immunoprecipitation and in vitro binding assay of CCN2 and EGFR; parameters: species or system human; conditions: A549; FIG. 2C
Protocol: CCN2 transfectants were seeded overnight and incubated in serum-free media for 24 h. For immunoprecipitations, cells were lysed in an RIPA buffer (150 mM NaCl, 50 mM Tris-base, 5 mM EDTA, 1% NP-40, and 0.25% deoxycholate; pH 7.4). Protein concentrations were determined using the BCA protein assay kit (Pierce, Rockford, Ill., USA). Lysate was incubated for 2 h at 4[…] with gentle rotation with rabbit polyclonal antibodies for human EGFR, CCN2, or Src immobilized onto protein A—sepharose beads (Santa Cruz Biotechnology, Santa Cruz, Calif., USA). Beads were washed twice with an IP buffer (137 mM NaCl, 2.7 mM KCl, 1 mM MgCl2, 1 mM CaCl2, 1% NP-40, 10% glycerol, 1 mg/ml bovine serum albumin, and 20 mM Tris; pH 8.0), boiled in a sodium dodecyl sulfate-polyacrylamide gel electrophoresis (SDS-PAGE) sample buffer, and centrifuged (12000×g, 4° C. for 15 min).
The recombinant proteins rCCN2 (BioVendor Com. Heidelberg, Germany), rEGFR, and rEGF (R&D Techne Corporation) ([…]) were added in binding buffer (50 mM sodium phosphate, pH 7.5, 500 mM NaCl, and I% Nonidet P-40) and incubated with gentle rotation at 4° C. for 2 h. Thereafter, crosslinks were reversed by boiling in an SDS-PAGE sample buffer (containing 0.1M dithiothreitol (DTT)) before loading on SDS-PAGE gels for immunoblotting analysis. […]

c-Src = test: Western blot of c-Src autophosphorylation; format: cell-based, human; conditions: CL1-5; 0 to 60 minutes; FIG. 3E
Protocol: (§2) Proteins ([…]) were separated by SDS-PAGE and transferred to a polyvinylidene difluoride membrane (Immobilon-P membrane; Millipore) by electrotransfer. The blot was blocked in a solution of 5% skim milk and 0.1% Tween 20 in PBS. Thereafter, membrane-bound proteins were probed with the following primary antibodies: CCN2, DAPK, phosphorylated ERK, ERK-1, phosphorylated Akt, Akt, TrkA, phosphorylated-Src, Src, b-actin, a-tubulin (Santa Cruz Biotechnology), p-EGFR, and EGFR (Cell Signaling Technology, Danvers, MA, USA). The membrane was washed and then incubated with HRP-conjugated secondary antibodies for 30 min. Enhanced chemiluminescence reagents (Amersham Pharmacia Biotech, Piscataway, N.J., USA) were employed to depict the protein bands on membranes. The light was captured on Kodak X-Omat Blue autoradiography film (PerkinElmer Life Sciences, Boston, Mass., USA).
Next, the effect of CCN2 on the formation of EGFR/Src complex and the phosphorylation of Src in the lung adenocarcinoma cell lines, CL1-5, A549 and CL1-0/siCCN2, was observed by western blot analysis, the results shown in FIGS. 3C to 3E.

EGFR [3] = molecular target: T1, EGFR; test: Western blot of EGFR ubiquitination; format: cell-based; conditions: CL1-5; FIG. 4C
Protocol: as §2
CCN2 transfectants were seeded overnight and incubated in serum-free media for 24 h. For immunoprecipitations, cells were lysed in an RIPA buffer (150 mM NaCl, 50 mM Tris-base, 5 mM EDTA, 1% NP-40, and 0.25% deoxycholate; pH 7.4). Protein concentrations were determined using the BCA protein assay kit (Pierce, Rockford, Ill., USA). […]

[4] = test system: lung adenocarcinoma cell line, CL1-5; test: In vivo anoikis, high-frequency ultrasonic imaging, s.c. CL1-5; conditions: nude mice, rCCN2 i.p. 1 mg/kg per day, FIG. 5F
Source text: Mice were anesthetized with isoflurane inhalation, and biofluorescence images were photographed with a CCD camera (IVIS; Xenogen Corporation, Caliper Life Sciences, Hopkinton, Mass., USA) at specific times. Imaging times ranged from 1 to 60 s, depending on the amount of fluorescence activity. Biofluorescence from the region of interest (ROI) was defined manually, and the data were expressed as photon flux (photons/s/cm^2/steradian). Background photon flux was defined using an ROI from a mouse that was not given an […]. injection of cancer cells. All biofluorescence data were collected and analyzed using IVIS. Celltracker dye was purchased from Molecular Probes, Invitrogen Corporation.
Next, the effect of rCCN2 on anoikis in the lung adenocarcinoma cell line, CL1-5, (in vivo) was observed by high-frequency ultrasonic imaging, the results shown in FIG. 5F(top right indicated as the amplification view of the yellow squares). In this embodiment, the lung adenocarcinoma cell line, CL1-5, was injected into the s.c. region of nude mice and the mice was treated i.p. either with rCCN2 (1 mg/kg per day) or a control solution (citrate buffer), and anoikis in the lung adenocarcinoma cell line, CL1-5,(in vivo) was observed by high-frequency ultrasonic imaging.

[5] = test system: mutated-type EGFR (L858R); test: Western blot of EGFR expression, H1299 mutated-type EGFR; format: cell-based, human; conditions: H1299 (single mutation point, L858R); 0 minutes to 4 hours; FIG. 7
Protocol: as §2
(§3) First, the effect of rCCN2 on the wild-type EGFR […] lung adenocarcinoma cell line, the mutated-type EGFR H1299 lung adenocarcinoma cell line, and the mutated-type EGFR H1975 lung adenocarcinoma cell line was observed by western blot analysis, the results shown in FIG. 7(Cell lysates of H1299 transfectants or H1975 cells were immunoblotted with anti-EGFR).

[6] = test system: mutated-type EGFR (L858R and T790M); test: Western blot of EGFR expression, H1975; format: cell-based, human; conditions: 0 to 4 hours, FIG. 7
Protocol: as §2, §3

EGFR [7] = test: Western blot of EGFR expression in PC9/WT and PC9/IR; format: cell-based; conditions: 100 ng/mL rCCN2, 0 to 12 hours, FIG. 8C
Protocol: as §2

[8] = test system: CL1-5 lung adenocarcinoma cell lines; test: MTT Assay, cell survival of CL1-5, rCCN2 and cetuximab; format: cell-based, human; conditions: attached CL1-5; rCCN2 alone 0 to 200 ng/mL; FIG. 8F
[9] = molecular target: T2, Epidermal growth factor receptor (EGFR) (human, UniProt P00533 25-1210); test: FACS on CL1-5 and A549 cells (legend of FIG. 2B)
T2 construct: whole, on cells; FACS and immunoprecipitation used EGFR in or on cells
Protocol: as §1

B1: Connective tissue growth factor (CCN2), wild-type full length (ligand, human, UniProt P29279 27-349, looked up)
chain: QNCSGPCRCPDEPAPRCPAGVSLVLDGCGCCRVCAKQLGELCTERDPCDPHKGLFCHFGSPANRKIGVCTAKDGAPCIFGGTVYRSGESFQSSCKYQCTCLDGAVGCMPLCSMDVRLPSPDCPFPRRVKLPGKCCEEWVCDEPKDQTVVGPALAAYRLEDTFGPDPTMIRANCLVQTTEWSACSKTCGMGISTRVTNDNASCRLEKQSRLCMVRPCEADLEENIKKGKKCIRTPKISKPIKFELSGCTSMKTYRAKFCGVCTDGRCCTPHRTTTLPVEFKCPDGEVMKKNMMFIKTCACHYNCPGDNDIFESLYYRKMYGDMA
notes: also called Recombinant CCN2; exogenous CCN2
In the case of B1, the “detection of membranous CCN2” value (EGFR [1]) is reported as “enhanced the detection of membranous CCN2”, the “physical association between CCN2 and EGFR” value (EGFR [2]) is reported as “there is a physically association” and the “autophosphorylation of c-Src Y416” value (c-Src) is reported as “gradually inhibit the autophosphorylation of c-Src^Y416”. For the same molecule, the EGFR ubiquitination degree (EGFR [3]) was “increase the EGFR ubiquitination degree”, the anoikis in vivo [4] was “clearly appeared anoikis” and the “expression of EGFR” value [5] was “inhibit the expression of EGFR more significantly”. For the same molecule, the “expression of EGFR” value [6] was “inhibit the expression of EGFR more significantly”, the “expression of EGFR” value (EGFR [7]; attached PC9/IR) was “suppressed more significantly” and the “expression of EGFR” value (EGFR [7]; attached PC9/WT) was “suppressed more significantly”. The cell survival [8] was “not significantly reduced” and the binding result [9] was “binds”.
